± gives the standard deviation of the averaged measurements.
System: ATP
Experiment: switch fluorescence ratio, 500 uM ATP over buffer (Cy3 cluster intensity, sum of 5 cycles each) (fold (ratio)); higher = stronger signal-on switching upon ATP binding; sequences stand for … in TCGTCGGCAGCGTCAGATGTGTATAAGAGACAGTTTTTTTTTTTTTTTTTTTTTTTTT…TC
Settings: aptamer strand: ATP DNA aptamer (quencher-CACCTGGGGGAGTATTGCGGAGGAAGG + anchor), 100 nM annealed; ATP concentration: 500 uM
Outline: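 Clusters with intensities outside 100-1000 RFU were excluded. The remaining Cy3-labelled switching-strand clusters on a modified Illumina MiSeq flow-cell had been annealed to 100 nM quencher-labelled ATP aptamer and imaged in selection buffer, then after 15 min with 500 uM ATP at 22 °C, for five cycles separated by NaOH stripping and re-annealing. The fluorescence ratio, averaged per switch-domain sequence, is each cluster's summed target-cycle Cy3 intensity over its summed buffer-cycle Cy3 intensity.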
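Note: ATP exposure 15 min at 22 °C before imaging.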

Row | Sequence | switch fluorescence ratio
1 | TCTTAGGTCA | 0.973 ± 0.022
2 | TCTTAGTAC | 1.05 ± 0.013
3 | TCTTAGTGGG | 1.01 ± 0.017
4 | TCTTAGTTAG | 0.9878 ± 0.0059
5 | TCTTAGTTTG | 0.986 ± 0.015
6 | TCTTATAGGT | 0.986 ± 0.017
7 | TCTTATCGTT | 0.964 ± 0.019
8 | TCTTATGCGG | 0.998 ± 0.019
9 | TCTTATGGGG | 0.994 ± 0.019
10 | TCTTCCGGTT | 1.233 ± 0.0018
11 | TCTTGCAAGG | 1.11 ± 0.17
12 | TCTTGCGTGG | 0.954 ± 0.01
13 | TCTTGCTCGG | 1.01 ± 0.053
14 | TCTTGCTCGT | 1.02 ± 0.0014
15 | TCTTGGGCCG | 1.03 ± 0.061
16 | TCTTGGGCTG | 0.9719 ± 0.0073
17 | TCTTGGGGGC | 1.01 ± 0.052
18 | TCTTGGGGT | 1.06 ± 0.15
19 | TCTTGGTAAT | 0.996 ± 0.018
20 | TCTTGTGCAT | 1.05 ± 0.03
21 | TCTTGTTAT | 1.01 ± 0.051
22 | TCTTGTTTTG | 0.994 ± 0.048
23 | TCTTTAATTT | 0.985 ± 0.026
24 | TCTTTCAGTT | 0.9816 ± 0.0082
25 | TCTTTGAGGT | 0.989 ± 0.022

Row | Sequence | switch fluorescence ratio
26 | TCTTTGATCT | 1.02 ± 0.054
27 | TCTTTGATTA | 1.01 ± 0.042
28 | TCTTTGCGCG | 1.02 ± 0.019
29 | TCTTTGGACT | 1.002 ± 0.0032
30 | TCTTTGGGGG | 1 ± 0.053
31 | TCTTTGGTCG | 1.02 ± 0.12
32 | TCTTTGTTGA | 0.995 ± 0.032
33 | TCTTTGTTGT | 1.01 ± 0.019
34 | TCTTTTGCAT | 1.06 ± 0.019
35 | TCTTTTGTG | 1.13 ± 0.2
36 | TCTTTTTAGT | 1 ± 0.029
37 | TGAAAAAAGG | 0.966 ± 0.03
38 | TGAAAAATGT | 0.984 ± 0.016
39 | TGAAAAGCGC | 1.01 ± 0.024
40 | TGAAAAGGGG | 0.998 ± 0.052
41 | TGAAAAGGTT | 0.983 ± 0.023
42 | TGAAACCCTA | 1.03 ± 0.016
43 | TGAAAGATCG | 1.02 ± 0.04
44 | TGAAAGGAAT | 1.13 ± 0.19
45 | TGAAAGGCTC | 1.1 ± 0.14
46 | TGAAAGGCTT | 1.06 ± 0.074
47 | TGAAAGGGAA | 0.9898 ± 0.0074
48 | TGAAAGTCTC | 1.003 ± 0.0057
49 | TGAAAGTTGT | 1.02 ± 0.029
50 | TGAAAGTTTG | 1.01 ± 0.026

Row | Sequence | switch fluorescence ratio
51 | TGAAATAAG | 0.979 ± 0.026
52 | TGAAATATTG | 0.996 ± 0.022
53 | TGAAATCAGT | 1.01 ± 0.018
54 | TGAAATGGGG | 0.98 ± 0.049
55 | TGAAATTGTG | 1.01 ± 0.022
56 | TGAAATTTAT | 1.01 ± 0.032
57 | TGAACAAGGG | 0.962 ± 0.015
58 | TGAACCAGGG | 1.05 ± 0.018
59 | TGAACCTTCA | 2.71 ± 0.14
60 | TGAACGTTGG | 0.997 ± 0.029
61 | TGAAGAAGTG | 0.994 ± 0.022
62 | TGAAGCTTGG | 1.026 ± 0.0073
63 | TGAAGCTTGT | 1.004 ± 0.003
64 | TGAAGGAGGT | 1 ± 0.015
65 | TGAAGGGGAC | 0.998 ± 0.015
66 | TGAAGGGGTA | 1.01 ± 0.059
67 | TGAAGGGGTG | 0.989 ± 0.026
68 | TGAAGGGTAT | 1.02 ± 0.033
69 | TGAAGGTAAA | 1.02 ± 0.042
70 | TGAAGTAAGG | 1.03 ± 0.029
71 | TGAAGTATAG | 0.9901 ± 0.005
72 | TGAAGTCGAC | 1 ± 0.068
73 | TGAAGTCGCT | 1.02 ± 0.0048
74 | TGAAGTCTGC | 0.968 ± 0.036
75 | TGAAGTGTTT | 1.01 ± 0.028

Row | Sequence | switch fluorescence ratio
76 | TGAAGTTAGC | 0.977 ± 0.011
77 | TGAAGTTAGG | 1.01 ± 0.021
78 | TGAAGTTCGG | 1.06 ± 0.025
79 | TGAAGTTGTA | 0.965 ± 0.035
80 | TGAATAGAGG | 1.012 ± 0.0024
81 | TGAATAGGGT | 1.03 ± 0.073
82 | TGAATATATT | 1.01 ± 0.022
83 | TGAATATCTT | 1.01 ± 0.026
84 | TGAATATGCG | 0.988 ± 0.0096
85 | TGAATATTTT | 0.9787 ± 0.0076
86 | TGAATCCATT | 1 ± 0.036
87 | TGAATCCGGG | 1 ± 0.038
88 | TGAATCGTTT | 0.937 ± 0.043
89 | TGAATGGGTA | 0.983 ± 0.019
90 | TGAATGTATT | 1.03 ± 0.045
91 | TGAATTCCAT | 0.983 ± 0.023
92 | TGAATTGGGA | 1.02 ± 0.07
93 | TGAATTTCGA | 0.953 ± 0.025
94 | TGACACAGTA | 1.26 ± 0.21
95 | TGACACATAC | 2.24 ± 0.033
96 | TGACAGACAT | 1.1 ± 0.027
97 | TGACAGGCGG | 0.963 ± 0.011
98 | TGACAGTCGT | 0.977 ± 0.024
99 | TGACATCATT | 1.063 ± 0.002
100 | TGACATTGTA | 1.01 ± 0.072
